Assay results as given in PMC4120998 (Journal of the American Chemical Society, 2014).

Biological target: CXCR4 on human Jurkat cells (Homo sapiens (endogenous, Jurkat cells), UniProt P61073)
Test: flow cytometry on cells

Chain of CXCR4 on human Jurkat cells (P61073 whole entry): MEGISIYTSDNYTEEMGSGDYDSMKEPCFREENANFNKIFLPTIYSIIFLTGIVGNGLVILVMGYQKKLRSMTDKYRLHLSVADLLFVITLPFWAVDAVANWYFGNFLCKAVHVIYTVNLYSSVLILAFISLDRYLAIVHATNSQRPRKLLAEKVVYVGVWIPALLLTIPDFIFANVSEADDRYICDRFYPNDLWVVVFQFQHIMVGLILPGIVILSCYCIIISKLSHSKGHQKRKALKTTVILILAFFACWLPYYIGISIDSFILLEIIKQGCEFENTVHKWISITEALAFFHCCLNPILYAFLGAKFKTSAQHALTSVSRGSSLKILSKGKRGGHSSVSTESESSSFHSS

B1: bovine antibody BLV1H12 (antibody)
VH: QVQLRESGPSLVKPSQTLSLTCTASGFSLSDKAVGWVRQAPGKALEWLGSIDTGGNTGYNPGLKSRLSITKDNSKSQVSLSVSSVTTEDSATYYCTSVHQETKKYQSCPDGYRERSDCSNRPACGTSDCCRVSVFGNCLTTLPVSYSYTYNYEWHVDVWGQGLLVTVSS
VL: QAVLNQPSSVSGSLGQRVSITCSGSSSNVGNGYVSWYQLIPGSAPRTLIYGDTSRASGVPDRFSGSRSGNTATLTISSLQAEDEADYFCASAEDSSSNAVFGSGTTLTVL
Question: Does B1 bind?
Answer: Result: no binding (tested: 1 μg/mL)
